# Laboratory results taken from the supplement of paper PMC10567573.
# B1: ZNF649 (parent)
# chain: MTKAQESLTLEDVAVDFTWEEWQF
# Variants of: B1
# Experiment: protein stability index of a GFP-peptide fusion (GPS, HEK-293T) (PSI 1-6); higher = more stable
# Conditions: c terminus: a fixed tail appended
# 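Further: lentivirally expressed fusions sorted by FACS into six bins by GFP to DsRed ratio, PSI derived from sequencing read proportions per bin multiplied by bin number.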
row,Variant,protein stability index
1,MTKAQESLTLEDQAVDFTWEEWQF,4.18
2,MTKAQESLTLEDCAVDFTWEEWQF,3.37
3,MTKAQESLTLEDIAVDFTWEEWQF,3.47
4,MTKAQESLTLEDKAVDFTWEEWQF,4.16
5,MTKAQESLTLEDRAVDFTWEEWQF,3.45
6,MTKAQESLTLEDWAVDFTWEEWQF,2.36
7,MTKAQESLTLEDSAVDFTWEEWQF,4.69
8,MTKAQESLTLEDNAVDFTWEEWQF,4.33
9,MTKAQESLTLEDFAVDFTWEEWQF,2.54
10,MTKAQESLTLEDGAVDFTWEEWQF,3.64
11,MTKAQESLTLEDAAVDFTWEEWQF,3.98
12,MTKAQESLTLEDEAVDFTWEEWQF,4.25
13,MTKAQESLTLEDYAVDFTWEEWQF,3.17
14,MTKAQESLTLEDTAVDFTWEEWQF,4.11
15,MTKAQESLTLEDMAVDFTWEEWQF,3.54
16,MTKAQESLTLEDDAVDFTWEEWQF,4.11
17,MTKAQESLTLEDLAVDFTWEEWQF,3.23
18,MTKAQESLTLEDPAVDFTWEEWQF,4.15
19,MTKAQESLTLEDHAVDFTWEEWQF,3.88
20,MTKAQESLTLEDVFVDFTWEEWQF,2.08
21,MTKAQESLTLEDVTVDFTWEEWQF,2.92
22,MTKAQESLTLEDVSVDFTWEEWQF,3.06
23,MTKAQESLTLEDVLVDFTWEEWQF,1.74
24,MTKAQESLTLEDVHVDFTWEEWQF,3.12

row,Variant,protein stability index
1,MTKAQESLTLEDVPVDFTWEEWQF,4.12
2,MTKAQESLTLEDVIVDFTWEEWQF,1.88
3,MTKAQESLTLEDVNVDFTWEEWQF,2.92
4,MTKAQESLTLEDVYVDFTWEEWQF,1.65
5,MTKAQESLTLEDVQVDFTWEEWQF,3.61
6,MTKAQESLTLEDVMVDFTWEEWQF,2.46
7,MTKAQESLTLEDVCVDFTWEEWQF,2.4
8,MTKAQESLTLEDVDVDFTWEEWQF,4.04
9,MTKAQESLTLEDVWVDFTWEEWQF,3.29
10,MTKAQESLTLEDVAEDFTWEEWQF,3.94
11,MTKAQESLTLEDVAFDFTWEEWQF,2.48
12,MTKAQESLTLEDVAHDFTWEEWQF,4.33
13,MTKAQESLTLEDVAQDFTWEEWQF,4.44
14,MTKAQESLTLEDVACDFTWEEWQF,3.71
15,MTKAQESLTLEDVAYDFTWEEWQF,3.91
16,MTKAQESLTLEDVADDFTWEEWQF,3.77
17,MTKAQESLTLEDVANDFTWEEWQF,3.87
18,MTKAQESLTLEDVAKDFTWEEWQF,3.95
19,MTKAQESLTLEDVAGDFTWEEWQF,4.07
20,MTKAQESLTLEDVARDFTWEEWQF,4.16
21,MTKAQESLTLEDVALDFTWEEWQF,2.56
22,MTKAQESLTLEDVAIDFTWEEWQF,2.53
23,MTKAQESLTLEDVASDFTWEEWQF,3.35
24,MTKAQESLTLEDVATDFTWEEWQF,4.1

row,Variant,protein stability index
1,MTKAQESLTLEDVAADFTWEEWQF,3.92
2,MTKAQESLTLEDVAPDFTWEEWQF,4.07
3,MTKAQESLTLEDVAMDFTWEEWQF,3.77
4,MTKAQESLTLEDVAWDFTWEEWQF,2.59
5,MTKAQESLTLESVAVDFTWEEWQF,2.13
6,MTKAQESLTLEIVAVDFTWEEWQF,2.95
7,MTKAQESLTLEKVAVDFTWEEWQF,2.7
8,MTKAQESLTLEAVAVDFTWEEWQF,1.72
9,MTKAQESLTLEEVAVDFTWEEWQF,3.23
10,MTKAQESLTLEMVAVDFTWEEWQF,2.14
11,MTKAQESLTLEHVAVDFTWEEWQF,2.68
12,MTKAQESLTLEYVAVDFTWEEWQF,4.33
13,MTKAQESLTLENVAVDFTWEEWQF,2.23
14,MTKAQESLTLEFVAVDFTWEEWQF,3.77
15,MTKAQESLTLECVAVDFTWEEWQF,2.65
16,MTKAQESLTLELVAVDFTWEEWQF,3.49
17,MTKAQESLTLEQVAVDFTWEEWQF,2.84
18,MTKAQESLTLEPVAVDFTWEEWQF,3.05
19,MTKAQESLTLEGVAVDFTWEEWQF,2.55
20,MTKAQESLTLEVVAVDFTWEEWQF,1.92
21,MTKAQESLTLERVAVDFTWEEWQF,2.85
22,MTKAQESLTLETVAVDFTWEEWQF,2.2
23,MTKAQESLTLEDVAVDLTWEEWQF,4.03
24,MTKAQESLTLEDVAVDDTWEEWQF,4.75

row,Variant,protein stability index
1,MTKAQESLTLEDVAVDITWEEWQF,4.25
2,MTKAQESLTLEDVAVDRTWEEWQF,3.61
3,MTKAQESLTLEDVAVDYTWEEWQF,3.76
4,MTKAQESLTLEDVAVDCTWEEWQF,4.1
5,MTKAQESLTLEDVAVDTTWEEWQF,3.95
6,MTKAQESLTLEDVAVDVTWEEWQF,4.05
7,MTKAQESLTLEDVAVDNTWEEWQF,3.64
8,MTKAQESLTLEDVAVDATWEEWQF,4.42
9,MTKAQESLTLEDVAVDHTWEEWQF,3.94
10,MTKAQESLTLEDVAVDETWEEWQF,5.01
11,MTKAQESLTLEDVAVDGTWEEWQF,3.81
12,MTKAQESLTLEDVAVDKTWEEWQF,4.72
13,MTKAQESLTLEDVAVDSTWEEWQF,4.52
14,MTKAQESLTLEDVAVDPTWEEWQF,4.43
15,MTKAQESLTLEDVAVDMTWEEWQF,4.17
16,MTKAQESLTLEDVAVDWTWEEWQF,3.31
17,MTKAQESLTLEDVAVDQTWEEWQF,4.51
18,MTKAQESLTLWDVAVDFTWEEWQF,2.13
19,MTKAQESLTLKDVAVDFTWEEWQF,2.62
20,MTKAQESLTLCDVAVDFTWEEWQF,2.12
21,MTKAQESLTLDDVAVDFTWEEWQF,3.57
22,MTKAQESLTLYDVAVDFTWEEWQF,1.28
23,MTKAQESLTLMDVAVDFTWEEWQF,2.14
24,MTKAQESLTLSDVAVDFTWEEWQF,2.83

row,Variant,protein stability index
1,MTKAQESLTLGDVAVDFTWEEWQF,2.98
2,MTKAQESLTLTDVAVDFTWEEWQF,2.86
3,MTKAQESLTLFDVAVDFTWEEWQF,1.44
4,MTKAQESLTLHDVAVDFTWEEWQF,2
5,MTKAQESLTLADVAVDFTWEEWQF,2.39
6,MTKAQESLTLRDVAVDFTWEEWQF,2.39
7,MTKAQESLTLLDVAVDFTWEEWQF,1.56
8,MTKAQESLTLPDVAVDFTWEEWQF,2.69
9,MTKAQESLTLNDVAVDFTWEEWQF,3.28
10,MTKAQESLTLQDVAVDFTWEEWQF,3.9
11,MTKAQESLTLIDVAVDFTWEEWQF,2.25
12,MTKAQESLTLVDVAVDFTWEEWQF,1.43
13,MTKAQESLTLEDVAVDFFWEEWQF,1.79
14,MTKAQESLTLEDVAVDFIWEEWQF,2.41
15,MTKAQESLTLEDVAVDFSWEEWQF,3.15
16,MTKAQESLTLEDVAVDFPWEEWQF,3.16
17,MTKAQESLTLEDVAVDFYWEEWQF,1.36
18,MTKAQESLTLEDVAVDFMWEEWQF,2.39
19,MTKAQESLTLEDVAVDFGWEEWQF,3.37
20,MTKAQESLTLEDVAVDFQWEEWQF,2.75
21,MTKAQESLTLEDVAVDFVWEEWQF,1.95
22,MTKAQESLTLEDVAVDFDWEEWQF,4.1
23,MTKAQESLTLEDVAVDFWWEEWQF,1.51
24,MTKAQESLTLEDVAVDFLWEEWQF,2.26

row,Variant,protein stability index
1,MTKAQESLTLEDVAVDFHWEEWQF,2.63
2,MTKAQESLTLEDVAVDFKWEEWQF,2.48
3,MTKAQESLTLEDVAVDFEWEEWQF,3.32
4,MTKAQESLTLEDVAVDFCWEEWQF,2.64
5,MTKAQESLTLEDVAVDFNWEEWQF,3.47
6,MTKAQESLTLEDVAVDFRWEEWQF,2.17
7,MTKAQESLTLEDVAVDFAWEEWQF,3.87
8,MTKAQESLTREDVAVDFTWEEWQF,3.88
9,MTKAQESLTGEDVAVDFTWEEWQF,4.14
10,MTKAQESLTTEDVAVDFTWEEWQF,4.05
11,MTKAQESLTAEDVAVDFTWEEWQF,3.8
12,MTKAQESLTWEDVAVDFTWEEWQF,3.19
13,MTKAQESLTDEDVAVDFTWEEWQF,4.91
14,MTKAQESLTVEDVAVDFTWEEWQF,3.01
15,MTKAQESLTSEDVAVDFTWEEWQF,4.07
16,MTKAQESLTHEDVAVDFTWEEWQF,4.42
17,MTKAQESLTPEDVAVDFTWEEWQF,4.11
18,MTKAQESLTCEDVAVDFTWEEWQF,4.05
19,MTKAQESLTNEDVAVDFTWEEWQF,4.29
20,MTKAQESLTFEDVAVDFTWEEWQF,3.61
21,MTKAQESLTIEDVAVDFTWEEWQF,2.81
22,MTKAQESLTQEDVAVDFTWEEWQF,4.13
23,MTKAQESLTKEDVAVDFTWEEWQF,4.34
24,MTKAQESLTEEDVAVDFTWEEWQF,4.38

row,Variant,protein stability index
1,MTKAQESLTMEDVAVDFTWEEWQF,3.44
2,MTKAQESLTYEDVAVDFTWEEWQF,3.24
3,MTKAQESLTLEDVAVRFTWEEWQF,2.22
4,MTKAQESLTLEDVAVEFTWEEWQF,1.85
5,MTKAQESLTLEDVAVLFTWEEWQF,2.73
6,MTKAQESLTLEDVAVCFTWEEWQF,2.89
7,MTKAQESLTLEDVAVFFTWEEWQF,2.94
8,MTKAQESLTLEDVAVHFTWEEWQF,3.23
9,MTKAQESLTLEDVAVPFTWEEWQF,4.02
10,MTKAQESLTLEDVAVAFTWEEWQF,3.34
11,MTKAQESLTLEDVAVKFTWEEWQF,2.5
12,MTKAQESLTLEDVAVQFTWEEWQF,2.92
13,MTKAQESLTLEDVAVNFTWEEWQF,3.77
14,MTKAQESLTLEDVAVYFTWEEWQF,2.64
15,MTKAQESLTLEDVAVTFTWEEWQF,3.32
16,MTKAQESLTLEDVAVVFTWEEWQF,2.29
17,MTKAQESLTLEDVAVSFTWEEWQF,3.12
18,MTKAQESLTLEDVAVMFTWEEWQF,2.34
19,MTKAQESLTLEDVAVGFTWEEWQF,3.13
20,MTKAQESLTLEDVAVIFTWEEWQF,2.52
21,MTKAQESLQLEDVAVDFTWEEWQF,3.58
22,MTKAQESLWLEDVAVDFTWEEWQF,2.54
23,MTKAQESLVLEDVAVDFTWEEWQF,3.16
24,MTKAQESLSLEDVAVDFTWEEWQF,3.43

row,Variant,protein stability index
1,MTKAQESLRLEDVAVDFTWEEWQF,3.59
2,MTKAQESLYLEDVAVDFTWEEWQF,2.41
3,MTKAQESLTLEDVAVDFTHEEWQF,3.6
4,MTKAQESLTLEDVAVDFTMEEWQF,3.77
5,MTKAQESLTLEDVAVDFTREEWQF,4.07
6,MTKAQESLTLEDVAVDFTDEEWQF,4.65
7,MTKAQESLTLEDVAVDFTVEEWQF,3.68
8,MTKAQESLTLEDVAVDFTGEEWQF,4.61
9,MTKAQESLTLEDVAVDFTTEEWQF,4.07
10,MTKAQESLTLEDVAVDFTEEEWQF,4.66
11,MTKAQESLTLEDVAVDFTSEEWQF,4.29
12,MTKAQESLTLEDVAVDFTIEEWQF,2.56
13,MTKAQESLTLEDVAVDFTQEEWQF,4.43
14,MTKAQESLTLEDVAVDFTNEEWQF,4.37
15,MTKAQESLTLEDVAVDFTAEEWQF,4.51
16,MTKAQESLTLEDVAVDFTPEEWQF,4.43
17,MTKAQESLTLEDVAVDFTCEEWQF,3.85
18,MTKAQESLTLEDVAVDFTFEEWQF,3.19
19,MTKAQESLTLEDVAVDFTLEEWQF,3
20,MTKAQESLTLEDVAVDFTKEEWQF,3.58
